In patent US20220396632A1 (VERSEAU THERAPEUTICS, published 2022):

T1: Biotin PSGL-1(42-62) peptide, unmodified (human, C-terminal Lys-biotin)
T1 construct: Residues 42-62 followed by GGGK-biotin; also called WT; wild-type
T1 peptide: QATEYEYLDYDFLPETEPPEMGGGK

T2: T44A (C-terminal Lys-biotin)
T2 construct: alanine-scan peptide; also called Biotin PSGL-1(42-62) T44A peptide; 44T
T2 peptide: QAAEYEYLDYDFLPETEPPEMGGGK

T3: M62A (C-terminal Lys-biotin)
T3 construct: alanine-scan peptide; also called Biotin PSGL-1(42-62) M62A peptide; 62M
T3 peptide: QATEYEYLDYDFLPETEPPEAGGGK

T4: E47A (C-terminal Lys-biotin)
T4 construct: alanine-scan peptide; also called Biotin PSGL-1(42-62) E47A peptide; 47E
T4 peptide: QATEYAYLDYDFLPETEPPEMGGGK

T5: T57A (C-terminal Lys-biotin)
T5 construct: alanine-scan peptide; also called Biotin PSGL-1(42-62) T57A peptide; 57T
T5 peptide: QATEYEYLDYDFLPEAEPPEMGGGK

T6: Biotin PSGL-1(42-62) Y46A peptide (C-terminal Lys-biotin)
T6 peptide: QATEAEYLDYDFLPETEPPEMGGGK

T7: Biotin PSGL-1(42-62) Y51A peptide (C-terminal Lys-biotin)
T7 peptide: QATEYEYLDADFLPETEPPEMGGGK

T8: Q42A (C-terminal Lys-biotin)
T8 construct: alanine-scan peptide; also called Biotin PSGL-1(42-62) Q42A peptide; 42Q
T8 peptide: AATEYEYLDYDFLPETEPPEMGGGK

T9: E61A (C-terminal Lys-biotin)
T9 construct: alanine-scan peptide; also called Biotin PSGL-1(42-62) E61A peptide; 61E
T9 peptide: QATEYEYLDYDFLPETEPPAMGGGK

T10: P59A (C-terminal Lys-biotin)
T10 construct: alanine-scan peptide; also called Biotin PSGL-1(42-62) P59A peptide; 59P
T10 peptide: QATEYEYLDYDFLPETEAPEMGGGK

T11: Biotin PSGL-1(42-62) E45A peptide (C-terminal Lys-biotin)
T11 peptide: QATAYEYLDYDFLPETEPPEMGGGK

T12: Y48A (C-terminal Lys-biotin)
T12 construct: alanine-scan peptide; also called Biotin PSGL-1(42-62) Y48A peptide; 48Y
T12 peptide: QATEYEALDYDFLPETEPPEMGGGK

T13: PSGL-1 endogenously expressed on HL-60 cells (UniProt Q14242 42-412)
T13 construct: whole, on cells
T13 sequence (looked up): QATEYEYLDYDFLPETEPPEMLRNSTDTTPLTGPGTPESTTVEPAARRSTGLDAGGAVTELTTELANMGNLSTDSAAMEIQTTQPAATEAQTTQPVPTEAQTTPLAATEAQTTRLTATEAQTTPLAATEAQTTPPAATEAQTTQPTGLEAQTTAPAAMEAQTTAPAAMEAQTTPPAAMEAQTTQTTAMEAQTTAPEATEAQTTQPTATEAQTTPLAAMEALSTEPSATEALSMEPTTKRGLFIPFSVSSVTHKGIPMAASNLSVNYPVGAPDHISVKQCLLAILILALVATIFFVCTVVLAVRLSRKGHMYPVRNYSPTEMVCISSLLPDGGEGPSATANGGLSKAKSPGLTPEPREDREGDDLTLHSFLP


Key:
[1] = target: T1, Biotin PSGL-1(42-62) peptide, unmodified; test: capture ELISA; against 3 x sY peptide
Outline: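 Direct format: anti-PSGL-1 mAb at a single concentration (2–500 nM) or serially diluted (0.002–100 nM) on immobilized target, detected with HRP anti-IgG and TMB at A450; 45 min steps at 37° C. Capture format: coated mAb (3 ug/mL) binds biotinylated unmodified or sulfotyrosine peptide (3 nM–3 uM), detected with HRP-streptavidin.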

[2] = target: T2, T44A; test: alanine-scan ELISA, streptavidin-immobilized biotin peptide
[3] = target: T3, M62A; test: as above
[4] = target: T4, E47A; test: as above
[5] = target: T5, T57A; test: as above
[6] = target: T6, Biotin PSGL-1(42-62) Y46A peptide; test: as above
[7] = target: T7, Biotin PSGL-1(42-62) Y51A peptide; test: as above
[8] = target: T8, Q42A; test: as above
[9] = target: T9, E61A; test: as above
[10] = target: T10, P59A; test: as above
[11] = target: T11, Biotin PSGL-1(42-62) E45A peptide; test: as above
[12] = target: T12, Y48A; test: as above
[13] = target: T13, PSGL-1 endogenously expressed on HL-60 …; test: flow cytometry on HL-60 cells
Method: A typical flow cytometry assay was performed by resuspending HL-60 cells in FACS buffer (5% FBS and 0.05% Sodium Azide in PBS, pH 7.2) on ice, pelleting cells by centrifugation at 500×g for 3 min, washing cells with FACS buffer, and then blocking Fc receptors on the cells with Fc block (human TruStain FcX™, BioLegend Cat. #422302) on ice for 10 min. After washing, 50,000 cells/50 ul in FACS buffer was added to each well of a 96-well round bottomed plate (Costar, Cat. #3797), and 50 ul of serially diluted (0.06 nM-1.0 uM) test or isotype control antibody was added into duplicate wells. The plate was covered and incubated on ice for 1 h. After washing, Phycoerythrin (PE) conjugated anti-human IgG secondary antibody (Abcam; Cat. #ab99825) was added to each well and the plate incubated in the dark on ice for 30 min. After washing, the cells were fixed (1% paraformaldhyde).

[14] = target: T1, Biotin PSGL-1(42-62) peptide, unmodified; test: ELISA, plate-bound peptide

Binder | EC50/EC50 3x(SO3)Y [1] [fold] | binding result [2] | binding result [3] | binding result [4] | binding result [5] | binding result [6] | binding result [7] | binding result [8] | binding result [9] | binding result [10] | binding result [11] | binding result [12] | EC50 [13] [nM] | fold weaker binding than to sulfotyrosine PSGL-1 42-62 [14] [fold]
03D07 (antibody, IgG4, V domains shown) VH: EVKLLESGGGLVQPGGSLRLSCAASGFTFSSYALSWVRQAPGKGLEWVSAISGSGGNTYYADSVKGRFTISRDNSKNTLYLQMNSLRAEDTAVYYCAKVVGATNYWGQGTLVTVSS VL: DIVMTQTPLSLPVTLGQPASISCRSSQSLVYSDGHTYLSWFHQRPGQSPRRLIYKVSIRDSGVPDRFSGSGSGTDFTLKISRVEAEDVGVYYCMQRLQIPLTFGGGTKVEIK | > 100 |  |  |  |  |  |  |  |  |  |  |  |  | 
18F02 (antibody, V domains shown, From mouse immunisation; only variable domains given) VH: QVQLQQPGAELVKPGASVKLSCKASGYTFTSYWMHWVKQRPGQGLEWIGMIHPNSGRTNYNEKFKSKATLTVDKSSSTAYMQLSSLTSEDSAVYYCARSDYWGQGTTLTVSS VL: DIVMTQAAFSNPVTLGTSASISCRSSKSLLHSDGITYLYWFLQRPGQSPQLLIYRMSNLASGVPDRFSGSGSGTDFTLRISRVEAEDVGVYYCAQMLEFPRTFGGGTKLEIK |  | binds | binds | binds | binds | binds | binds | binds | binds | binds | binds | binds |  | 
20I15 (antibody, V domains shown, From mouse immunisation; only variable domains given; also called 20115) VH: EVKLVESGGGLVQPGGSLSLSCAASGFTFTDYYMSWVRQPPGKALEWLGFIRNKANGYTTEYSASVKGRFTISRDNSQSILYLQMNALRAEDSATYYCARTYLRRGYFDVWGTGTTVTVSS VL: DIVLTQSPASLAVSLGQRATISCRASKSVSTSGYSYMHWFQQKPGQPPKLLIYLASNLESGVPARFSGSGSGTDFTLNIHPVEEEDAATYYCQHSRELPLTFGAGTKLELK | ~10 |  |  |  |  |  |  |  |  |  |  |  | 1.4 | > 50
19L04 (antibody, IgG4, V domains shown, From mouse immunisation; only variable domains given) VH: QIQLVQSGPELKKPGETVKISCKASGYTFTTYGMSWVKQAPGKGLKWMGWINTYSGVPTYADDFKGRFAFSLETSASTAYLQINNLKIEDTATYFCARHYYGSHYFDYWGQGTTLTVSS VL: DIMMTQSPSSLAMSVGQKVTLRCKSSQSLLNSSNQKNYLAWYQQKPGQSPKLLVYFASTRESGVPVRFIGSGSGTDFTLTISSMQAEDLADYFCQQHYFSPLTFGAGTKLELK |  |  |  |  |  |  |  |  |  |  |  |  | 2 | 
43B6 (antibody, V domains shown, Control anti-PSGL-1 mAb, recombinant; only variable domains given; also called 43B3) VH: EVQLQQSGPDLVKPGALVKISCKASGYSFTAYYIHWVKQSHGKSLEWIGRVNPNTGGTSYNPKFKGKAILNVDKSSSTAYMELRSLTSEDSAVYYCARSGSPYYRYDDWGQGTTLTVSS VL: ENVLTQSPAIMSASPGEKVTMTCRASSTVNSTYLHWFQQKSGASPKLWIYGSSNLASGVPARFSGSGSGTSYSLTISSVEAEDAATYYCQQYSGYPLTFGAGTTLELK |  | binds | binds | binds | binds | binds | binds | binds | binds | binds | binds | binds |  | 
10F01 (antibody, IgG4, V domains shown) VH: EVQLVQSGGGLVQPGGSLRLSCAASGFTFSSYAMSWVRQAPGKGLEWVSALRGGDGGTYHADSVKGRFTISGDSSKNTLYLQMNSLRAEDTAVYYCARRMVGAAYAFDIWGQGTMVTVSS VL: LPVLTQPHSVSESPGKTVTISCTRSSGSIADNFVQWYRQRPGSAPTTVIYEGDQRPSGVPGRFSGSIDSSSNSASLTISGLQTDDEADYYCQSFDSYNRRTHVVFGGGTKLTVL |  |  |  |  |  |  |  |  |  |  |  |  |  | > 500
